Data taken from publication PMC11392913.

Target: H. pylori PflB_(Δ140), the periplasmic α-helical domain of paralyzed flagellum protein B (Helicobacter pylori (strain SS1))
Experiment: SEC; Superdex 200 10/300 GL, 20 mM Tris-HCl pH 8.0, 150 mM NaCl, 10% glycerol, 4 CMC LDAO; mass from a calibration with globular standards

Substance: H. pylori PflB_(Δ140), the periplasmic α-helical domain of paralyzed flagellum protein B (domain or fragment)
- stoichiometry N: > 4
